Measurements published in the supplement of paper PMC10567573.

B1: FBXO3 (parent)
chain: AGGFQQRQGLKYCLPLTFCIHTGL
B2: RAB11A (parent)
chain: AVPTDEARAFAEKNGLSFIETSAL

Variants of: B1
Test: protein stability index of a GFP-peptide fusion (GPS, HEK-293T) (PSI 1-6); higher = more stable
Conditions: c terminus: a fixed tail appended
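Note: lentivirally expressed fusions sorted by FACS into six bins by GFP to DsRed ratio, PSI derived from sequencing read proportions per bin multiplied by bin number.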

Variant	protein stability index
AGGFQQRQGLKYCLPLTFCIHVGL [T22V]	3.1
AGGFQQRQGLKYCLPLTFCIHWGL [T22W]	2.86
AGGFQQRQGLKYCLPLTFCIHLGL [T22L]	2.59
AGGFQQRQGLKYCLPLTFCIHRGL [T22R]	2.2
AGGFQQRQGLKYCLPLTFCIHSGL [T22S]	3.29
AGGFQQRQGLKYCLPLTFCIHKGL [T22K]	2.49
AGGFQQRQGLKYCLPLTFCIHHGL [T22H]	2.17
AGGFQQRQGLKYCLPLTFCIHPGL [T22P]	3.88
AGGFQQRQGLKYCLPLTFCIHDGL [T22D]	1.27
AGGFQQRQGLKYCLPLTFCIHCGL [T22C]	2.09
AGGFQQRQGLKYCLPLTFCIHQGL [T22Q]	2.23
AGGFQQRQGLKYCLPLTFCIHMGL [T22M]	2.18
AGGFQQRQGLKYCLPLTFCIHNGL [T22N]	3.55
AGGFQQRQGLKYCLPLTFCIHYGL [T22Y]	3.75
AGGFQQRQGLKYCLPLTFCIHEGL [T22E]	2.24
AGGFQQRQGLKYCLPLTFCIHAGL [T22A]	1.86
AGGFQQRQGLKYCLPLTFCIHTNL [G23N]	2.97
AGGFQQRQGLKYCLPLTFCIHTEL [G23E]	2.4
AGGFQQRQGLKYCLPLTFCIHTLL [G23L]	2.67
AGGFQQRQGLKYCLPLTFCIHTKL [G23K]	2.81
AGGFQQRQGLKYCLPLTFCIHTFL [G23F]	3.1
AGGFQQRQGLKYCLPLTFCIHTCL [G23C]	3.16
AGGFQQRQGLKYCLPLTFCIHTAL [G23A]	3.52
AGGFQQRQGLKYCLPLTFCIHTML [G23M]	2.31

Variant	protein stability index
AGGFQQRQGLKYCLPLTFCIHTWL [G23W]	2.97
AGGFQQRQGLKYCLPLTFCIHTRL [G23R]	3.05
AGGFQQRQGLKYCLPLTFCIHTDL [G23D]	2.58
AGGFQQRQGLKYCLPLTFCIHTVL [G23V]	3.1
AGGFQQRQGLKYCLPLTFCIHTPL [G23P]	3.02
AGGFQQRQGLKYCLPLTFCIHTIL [G23I]	1.85
AGGFQQRQGLKYCLPLTFCIHTQL [G23Q]	3.06
AGGFQQRQGLKYCLPLTYCIHTGL [F18Y]	2.71
AGGFQQRQGLKYCLPLTTCIHTGL [F18T]	1.19
AGGFQQRQGLKYCLPLTDCIHTGL [F18D]	1.67
AGGFQQRQGLKYCLPLTLCIHTGL [F18L]	3.1
AGGFQQRQGLKYCLPLTGCIHTGL [F18G]	1.1
AGGFQQRQGLKYCLPLTECIHTGL [F18E]	2.36
AGGFQQRQGLKYCLPLTRCIHTGL [F18R]	1.05
AGGFQQRQGLKYCLPLTVCIHTGL [F18V]	4.06
AGGFQQRQGLKYCLPLTNCIHTGL [F18N]	1.95
AGGFQQRQGLKYCLPLTICIHTGL [F18I]	2.93
AGGFQQRQGLKYCLPLTKCIHTGL [F18K]	1.89
AGGFQQRQGLKYCLPLTSCIHTGL [F18S]	1.4
AGGFQQRQGLKYCLPLTMCIHTGL [F18M]	2.41
AGGFQQRQGLKYCLPLTHCIHTGL [F18H]	1.77
AGGFQQRQGLKYCLPLTPCIHTGL [F18P]	1.68
AGGFQQRQGLKYCLPLTQCIHTGL [F18Q]	2.47
AGGFQQRQGLKYCLPLTACIHTGL [F18A]	2.38

Variant	protein stability index
AGGFQQRQGLKYCLPLTFCIVTGL [H21V]	3.83
AGGFQQRQGLKYCLPLTFCILTGL [H21L]	2.46
AGGFQQRQGLKYCLPLTFCIPTGL [H21P]	2.76
AGGFQQRQGLKYCLPLTFCIETGL [H21E]	1.98
AGGFQQRQGLKYCLPLTFCISTGL [H21S]	2.72
AGGFQQRQGLKYCLPLTFCIYTGL [H21Y]	3.41
AGGFQQRQGLKYCLPLTFCIDTGL [H21D]	2.99
AGGFQQRQGLKYCLPLTFCIFTGL [H21F]	3.32
AGGFQQRQGLKYCLPLTFCIGTGL [H21G]	2.73
AGGFQQRQGLKYCLPLTFCIQTGL [H21Q]	2.73
AGGFQQRQGLKYCLPLTFCIWTGL [H21W]	2.15
AGGFQQRQGLKYCLPLTFCIITGL [H21I]	2.36
AGGFQQRQGLKYCLPLTFCIKTGL [H21K]	2.03
AGGFQQRQGLKYCLPLTFCITTGL [H21T]	2.59
AGGFQQRQGLKYCLPLTFCIMTGL [H21M]	1.72
AGGFQQRQGLKYCLPLTFCICTGL [H21C]	3.66
AGGFQQRQGLKYCLPLTFHIHTGL [C19H]	2.66
AGGFQQRQGLKYCLPLTFYIHTGL [C19Y]	2.67
AGGFQQRQGLKYCLPLTFGIHTGL [C19G]	1.97
AGGFQQRQGLKYCLPLTFDIHTGL [C19D]	1.46
AGGFQQRQGLKYCLPLTFNIHTGL [C19N]	2.04
AGGFQQRQGLKYCLPLTFIIHTGL [C19I]	1.6
AGGFQQRQGLKYCLPLTFPIHTGL [C19P]	1.87
AGGFQQRQGLKYCLPLTFAIHTGL [C19A]	3.9

Variant	protein stability index
AGGFQQRQGLKYCLPLTFLIHTGL [C19L]	2.86
AGGFQQRQGLKYCLPLTFSIHTGL [C19S]	2.64
AGGFQQRQGLKYCLPLTFQIHTGL [C19Q]	1.74
AGGFQQRQGLKYCLPLTFKIHTGL [C19K]	2.21
AGGFQQRQGLKYCLPLTFTIHTGL [C19T]	3.13
AGGFQQRQGLKYCLPLTFFIHTGL [C19F]	2.44
AGGFQQRQGLKYCLPLTFMIHTGL [C19M]	2.71
AGGFQQRQGLKYCLPLTFRIHTGL [C19R]	2.8
AGGFQQRQGLKYCLPLTFVIHTGL [C19V]	2.83
AGGFQQRQGLKYCLPLTFEIHTGL [C19E]	3.11
AGGFQQRQGLKYCLPLTFCCHTGL [I20C]	3.77
AGGFQQRQGLKYCLPLTFCKHTGL [I20K]	1.6
AGGFQQRQGLKYCLPLTFCQHTGL [I20Q]	2.62
AGGFQQRQGLKYCLPLTFCGHTGL [I20G]	2.69
AGGFQQRQGLKYCLPLTFCMHTGL [I20M]	2.73
AGGFQQRQGLKYCLPLTFCPHTGL [I20P]	2.11
AGGFQQRQGLKYCLPLTFCTHTGL [I20T]	2.56
AGGFQQRQGLKYCLPLTFCRHTGL [I20R]	3.02
AGGFQQRQGLKYCLPLTFCWHTGL [I20W]	1.25
AGGFQQRQGLKYCLPLTFCDHTGL [I20D]	2.93
AGGFQQRQGLKYCLPLTFCLHTGL [I20L]	3.23
AGGFQQRQGLKYCLPLTFCFHTGL [I20F]	2.34
AGGFQQRQGLKYCLPLTFCVHTGL [I20V]	2.78
AGGFQQRQGLKYCLPLTFCSHTGL [I20S]	2.43

Variant	protein stability index
AGGFQQRQGLKYCLPLTFCEHTGL [I20E]	2.95
AGGFQQRQGLKYCLPLTFCAHTGL [I20A]	1.89
AGGFQQRQGLKYCLPLTFCNHTGL [I20N]	2.33
AGGFQQRQGLKYCLPLTFCIHTGN [L24N]	2.3
AGGFQQRQGLKYCLPLTFCIHTGQ [L24Q]	1.96
AGGFQQRQGLKYCLPLTFCIHTGS [L24S]	2.14
AGGFQQRQGLKYCLPLTFCIHTGT [L24T]	2.42
AGGFQQRQGLKYCLPLTFCIHTGP [L24P]	1.88
AGGFQQRQGLKYCLPLTFCIHTGV [L24V]	3.48
AGGFQQRQGLKYCLPLTFCIHTGA [L24A]	2.48
AGGFQQRQGLKYCLPLTFCIHTGE [L24E]	3.16
AGGFQQRQGLKYCLPLTFCIHTGH [L24H]	2.7
AGGFQQRQGLKYCLPLTFCIHTGF [L24F]	2.33
AGGFQQRQGLKYCLPLTFCIHTGI [L24I]	2.69
AGGFQQRQGLKYCLPLTFCIHTGW [L24W]	2.7
AGGFQQRQGLKYCLPLTFCIHTGG [L24G]	2.74
AGGFQQRQGLKYCLPLTFCIHTGK [L24K]	1.66
AGGFQQRQGLKYCLPLTFCIHTGR [L24R]	2.73
AGGFQQRQGLKYCLPLTFCIHTGC [L24C]	2.15
AGGFQQRQGLKYCLPLTFCIHTGD [L24D]	2.42
AGGFQQRQGLKYCLPLTFCIHTGM [L24M]	2.99
AGGFQQRQGLKYCLPLTFCIHTGY [L24Y]	2.45

Variants of: B2
Test: as above
Conditions: c terminus: a fixed tail appended

Variant	protein stability index
YVPTDEARAFAEKNGLSFIETSAL [A1Y]	2.23
LVPTDEARAFAEKNGLSFIETSAL [A1L]	2.28
HVPTDEARAFAEKNGLSFIETSAL [A1H]	2.63
EVPTDEARAFAEKNGLSFIETSAL [A1E]	2.72
DVPTDEARAFAEKNGLSFIETSAL [A1D]	2.82
KVPTDEARAFAEKNGLSFIETSAL [A1K]	2.8
GVPTDEARAFAEKNGLSFIETSAL [A1G]	2.77
NVPTDEARAFAEKNGLSFIETSAL [A1N]	2.4
QVPTDEARAFAEKNGLSFIETSAL [A1Q]	2.43
WVPTDEARAFAEKNGLSFIETSAL [A1W]	1.8
RVPTDEARAFAEKNGLSFIETSAL [A1R]	2.46
PVPTDEARAFAEKNGLSFIETSAL [A1P]	2.38
CVPTDEARAFAEKNGLSFIETSAL [A1C]	1.45
VVPTDEARAFAEKNGLSFIETSAL [A1V]	2.49
FVPTDEARAFAEKNGLSFIETSAL [A1F]	3.39
SVPTDEARAFAEKNGLSFIETSAL [A1S]	2.56
TVPTDEARAFAEKNGLSFIETSAL [A1T]	2.55
IVPTDEARAFAEKNGLSFIETSAL [A1I]	2.57
MVPTDEARAFAEKNGLSFIETSAL [A1M]	2.41
AVATDEARAFAEKNGLSFIETSAL [P3A]	2.61
AVFTDEARAFAEKNGLSFIETSAL [P3F]	2.23
AVNTDEARAFAEKNGLSFIETSAL [P3N]	2.77
AVSTDEARAFAEKNGLSFIETSAL [P3S]	2.57
AVETDEARAFAEKNGLSFIETSAL [P3E]	2.47

Variant	protein stability index
AVVTDEARAFAEKNGLSFIETSAL [P3V]	2.14
AVGTDEARAFAEKNGLSFIETSAL [P3G]	2.41
AVHTDEARAFAEKNGLSFIETSAL [P3H]	2.54
AVKTDEARAFAEKNGLSFIETSAL [P3K]	2.55
AVYTDEARAFAEKNGLSFIETSAL [P3Y]	2.23
AVRTDEARAFAEKNGLSFIETSAL [P3R]	2.07
AVWTDEARAFAEKNGLSFIETSAL [P3W]	2.08
AVITDEARAFAEKNGLSFIETSAL [P3I]	2.36
AVDTDEARAFAEKNGLSFIETSAL [P3D]	3.01
AVLTDEARAFAEKNGLSFIETSAL [P3L]	2.59
AVMTDEARAFAEKNGLSFIETSAL [P3M]	2.47
AVTTDEARAFAEKNGLSFIETSAL [P3T]	2.81
AVQTDEARAFAEKNGLSFIETSAL [P3Q]	2.78
AVCTDEARAFAEKNGLSFIETSAL [P3C]	1.67
AVPIDEARAFAEKNGLSFIETSAL [T4I]	2.28
AVPPDEARAFAEKNGLSFIETSAL [T4P]	2.43
AVPDDEARAFAEKNGLSFIETSAL [T4D]	2.84
AVPADEARAFAEKNGLSFIETSAL [T4A]	2.04
AVPNDEARAFAEKNGLSFIETSAL [T4N]	2.22
AVPLDEARAFAEKNGLSFIETSAL [T4L]	2.79
AVPFDEARAFAEKNGLSFIETSAL [T4F]	2.06
AVPMDEARAFAEKNGLSFIETSAL [T4M]	2.12
AVPHDEARAFAEKNGLSFIETSAL [T4H]	2.6
AVPCDEARAFAEKNGLSFIETSAL [T4C]	1.89

Variant	protein stability index
AVPEDEARAFAEKNGLSFIETSAL [T4E]	2.75
AVPGDEARAFAEKNGLSFIETSAL [T4G]	2.52
AVPKDEARAFAEKNGLSFIETSAL [T4K]	2.39
AEPTDEARAFAEKNGLSFIETSAL [V2E]	2.97
AQPTDEARAFAEKNGLSFIETSAL [V2Q]	2
AWPTDEARAFAEKNGLSFIETSAL [V2W]	2.05
APPTDEARAFAEKNGLSFIETSAL [V2P]	2.98
ANPTDEARAFAEKNGLSFIETSAL [V2N]	2.52
AHPTDEARAFAEKNGLSFIETSAL [V2H]	2.46
ATPTDEARAFAEKNGLSFIETSAL [V2T]	2.47
ACPTDEARAFAEKNGLSFIETSAL [V2C]	2.15
AMPTDEARAFAEKNGLSFIETSAL [V2M]	2.67
ASPTDEARAFAEKNGLSFIETSAL [V2S]	2.48
AAPTDEARAFAEKNGLSFIETSAL [V2A]	2.51
ALPTDEARAFAEKNGLSFIETSAL [V2L]	2.48
AKPTDEARAFAEKNGLSFIETSAL [V2K]	2.11
ARPTDEARAFAEKNGLSFIETSAL [V2R]	2.56
AYPTDEARAFAEKNGLSFIETSAL [V2Y]	2.49
AIPTDEARAFAEKNGLSFIETSAL [V2I]	2.18
AFPTDEARAFAEKNGLSFIETSAL [V2F]	2.35
ADPTDEARAFAEKNGLSFIETSAL [V2D]	2.74
AGPTDEARAFAEKNGLSFIETSAL [V2G]	2.73
